In paper PMC7864055, “Biochemical and biophysical analyses of hypoxia sensing prolyl hydroxylases from Dictyostelium discoideum and Toxoplasma gondii” (The Journal of Biological Chemistry, 2021):

Substrate: O=C(O)CCC(=O)C(=O)O
Experiment: RapidFire SPE-MS of Skp1 hydroxylation, Michaelis-Menten fit
Assay type: biochemical, Dictyostelium discoideum
Settings: cosubstrate, full-length DdSkp1 100 μM, Fe(II) 50 μM, L-ascorbate 1 mM, HEPES pH 7.6, 37 °C, atmospheric O2
Excerpt: RapidFire SPE-MS of Skp1 hydroxylation, Michaelis-Menten fit on DdPhyA

B1: DdPhyA (Dictyostelium discoideum) (protein)
chain: MDISNLPPHIRQQILGLISKPQQNNDESSSSNNKNNLINNEKVSNVLIDLTSNLKIENFKIFNKESLNQLEKKGYLIIDNFLNDLNKINLIYDESYNQFKENKLIEAGMNKGTDKWKDKSIRGDYIQWIHRDSNSRIQDKDLSSTIRNINYLLDKLDLIKNEFDNVIPNFNSIKTQTQLAVYLNGGRYIKHRDSFYSSESLTISRRITMIYYVNKDWKKGDGGELRLYTNNPNNTNQKELKQTEEFIDIEPIADRLLIFLSPFLEHEVLQCNFEPRIAITTWIY
notes: full-length aa 1-284, E. coli BL21 Gold (DE3), N-terminal His6-ZBasic tag cleaved by TEV, EDTA-treated to remove metal
- Km: 36 ± 6 µM
